Consider 3 sequences from publication PMC9141747.

In data set [1] the target is T1, H-NS (Escherichia coli K1 (RS218?)) (UniProt P0ACF8).
T1 sequence: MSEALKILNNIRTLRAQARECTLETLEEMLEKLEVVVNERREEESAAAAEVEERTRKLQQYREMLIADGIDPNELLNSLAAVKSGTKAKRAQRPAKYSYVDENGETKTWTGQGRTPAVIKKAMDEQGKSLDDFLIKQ
In words: EMSA. Particulars: 10 mM Tris pH 7.5, 1 mM EDTA, 100 mM KCl, 0.1 mM DTT, 5% glycerol, 0.01 mg/mL BSA.

Data set [2] relates to T2, YbdO (Escherichia coli K1 (RS218?)), ORF:f8d494c4.
T2 sequence: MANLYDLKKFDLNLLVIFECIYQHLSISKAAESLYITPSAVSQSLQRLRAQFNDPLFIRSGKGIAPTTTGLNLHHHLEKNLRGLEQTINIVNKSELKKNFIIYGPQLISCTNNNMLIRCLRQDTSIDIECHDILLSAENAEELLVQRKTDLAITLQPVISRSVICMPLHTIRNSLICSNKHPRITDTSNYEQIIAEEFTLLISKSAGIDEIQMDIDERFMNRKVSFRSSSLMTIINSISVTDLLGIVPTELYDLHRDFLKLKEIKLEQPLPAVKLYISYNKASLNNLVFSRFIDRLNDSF
In words: EMSA. To be noted: 10 mM Tris pH 7.5, 1 mM EDTA, 100 mM KCl, 0.1 mM DTT, 5% glycerol, 0.01 mg/mL BSA; […].

As to “ACATACTCCGTTGTATTGTCTCTTCCATAAATCATTCACTTGATCAATAATGTTGTTGTATTTATATGTATTATGTTTTTCTGCTTAACTTTGGATTAAGATTTTCTAAAATAGCATAGCTGTCAGGTGGGTTACGAGCAATTCATGCGTTTTTAGGATGGTTGAAAAGCAGAGAGAGATTTCAACCATCGATGAATTATATTCTATTTATTCCCCATAATGATATTAAGTGTTTTCTGATCGGGTAATCCGACGGCTTGTTGCAGGGTA (double strand) [PybdO]”, in data set [1] ([…]), the binding entry is on record as “binds”.
As for “TTTCCTGAGAAATTAACTCTGCATTCTAAAACGGCCAGTTTTCTGAAATTACCAGAAGACCGAATACATTCATGCCTGAAGAATGGATTAGAAGAAACGAGACGGAAATAGATCTATTTATCCCTGCGGAAATAATTTCTGCTGAAATTTTTTTGCGGCTATTAAAAAGGTCAAACCGTCTGAGTAAATTTTATCCAGTTACAAACAAGTATTACCTCCAGTGTATTGGTAGCTGTTAAGCCAAGGGCGGTAGCGTACCTGAAGAGATTAGGATCACATCATCAAATGG (double strand) [PkpsM]”, the binding result in data set [2] was “binds”.
On to “GCGGCCCCAGGCCGAGCCAGTTTACCCGCTCTGAGACCTGCGCCAGCTGGCAGGTCAGGCCAATCCGCGCCGGATGCGGTGTATCGCTTGCCACCGCAACATCCACATTGATGACCATCTCACCGTGCCCATCAATCCGGTAGG (double strand) [lacZ fragment]”, for which the binding result is given as “no binding” in data set [1] (20 ng DNA in 20 uL, 25 C, 30 min, native 8% PAGE in 0.5x TBE, GelRed stain) and “no binding” in data set [2].
